Reference: patent publication US20060183130A1 (VANDERBILT UNIVERSITY, published 2006)

Molecular target: T1, endogenous c-Myc of p53-/- mouse embryo fibroblasts (mouse, UniProt P01108-2 1-439, limits assumed)
T1 construct: Endogenous protein in a cell lysate
Assay: co-IP, summary of the experiments (endogenous proteins)
From the text: FIGS. 2A-F ARF—binds to c-Myc. FIGS. 2A-D, Coimmunoprecipitation of ARF and c-Myc. Cos-7 cells transfected with c-Myc and/or ARF were subjected to immunoprecipitation (IP) using anti-Mycfl (fl, full length; FIG. 2A) or anti-ARF (FIG. 2B) followed by immunoblot (IB) analysis using the indicated antibody. FIG. 2C, c-myc^{-/-} cells, ARF^{-/-} MEFs or p53^{-/-} MEFs were subjected to IP using anti-Mycfl followed by IB analysis. FIG. 2D, HeLa cells were subjected to IP using anti-p14ARF or anti-Mycfl followed by IB analysis. FIG. 2E, Coimmunoprecipitation of c-Myc deletions with ARF. Cos-7 cells transfected with the indicated c-Myc deletion mutant were subjected to IP with anti-ARF followed by IB analysis. FIG. 2F, Schematic representation of the structure of c-Myc and c-Myc deletions showing relative binding to ARF.
Immunoprecipitation and Immunoblotting Analysis. Cell lysates were prepared and coimmunoprecipitation of endogenous proteins was performed as described previously (Weber et al., 1999). For coimmunoprecipitation of exogenous proteins, cells were lysed in Ab lysis buffer (20 mM Tris, pH 7.5, 0.5% Triton X-100, 0.5% deoxycholic acid (DOC) and 0.5% SDS, 1 mM EDTA) and immunoprecipitates were subjected immunoblot analysis using anti-c-Mycfl (06-340, Upstate) or anti-ARF (Ab80, GeneTex; 07-543, Upstate) and enhanced chemiluminescence for detection. […]

T1 sequence (P01108 16-454 limits assumed): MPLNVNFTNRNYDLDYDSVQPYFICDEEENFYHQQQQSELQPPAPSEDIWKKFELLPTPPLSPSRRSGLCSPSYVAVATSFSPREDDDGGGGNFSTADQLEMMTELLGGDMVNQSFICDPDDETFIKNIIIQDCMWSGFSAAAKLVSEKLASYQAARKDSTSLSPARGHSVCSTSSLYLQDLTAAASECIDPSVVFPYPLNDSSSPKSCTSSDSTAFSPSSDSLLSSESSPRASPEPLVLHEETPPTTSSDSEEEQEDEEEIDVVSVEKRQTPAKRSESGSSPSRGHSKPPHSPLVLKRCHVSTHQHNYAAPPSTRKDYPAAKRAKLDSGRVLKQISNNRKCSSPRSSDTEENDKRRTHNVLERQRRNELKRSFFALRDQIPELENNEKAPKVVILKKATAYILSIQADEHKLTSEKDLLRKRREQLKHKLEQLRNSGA

B1: mouse p19ARF (murine p19Arf) (other)
chain: MGRRFLVTVRIQRAGRPLQERVFLVKFVRSRRPRTASCALAFVNMLLRLERILRRGPHRNPGPGDDDGQRSRSSSSAQLRCRFELRGPHYLLPPGARRSAGRLPGHAGGAARVRGSAGCARCLGSPAARLGPRAGTSRHRAIFAFRWVLFVFRWVVFVYRWERRPDRRA
binding result: binds
